According to PMC3386781:
Numbering of substitutions follows the chain as printed. Names may count otherwise.

B1: AtHTMT1 (AtHOL1; halide/thiocyanate methyltransferase, HTMT) (Arabidopsis thaliana) (protein)
chain: MAEEQQNSDQSNGGNVIPTPEEVATFLHKTVEEGGWEKCWEEEITPWDQGRATPLIVHLVDTSSLPLGRALVPGCGGGHDVVAMASPERFVVGLDISESALAKANETYGSSPKAEYFSFVKEDVFTWRPTELFDLIFDYVFFCAIEPEMRPAWAKSMYELLKPDGELITLMYPITDHVGGPPYKVDVSTFEEVLVPIGFKAVSVEENPHAIPTRKGKEKLGRWKKIN
B2: AtHTMT1 (AtHOL1; halide/thiocyanate methyltransferase, HTMT) (Arabidopsis thaliana; V23C) (protein)
chain: B1 chain with V23C
B3: AtHTMT1 (AtHOL1; halide/thiocyanate methyltransferase, HTMT) (Arabidopsis thaliana; Y172F) (protein)
chain: B1 chain with Y172F

Columns and labels:
purified protein [1] = substrate: Br; assay: purified protein; settings: co-substrate SAM; tag removed
purified protein [2] = substrate: N#CS; assay: purified protein; settings: co-substrate SAM; tag removed

Protein | Km (purified protein [1]) | Vmax (purified protein [1]) | Km (purified protein [2]) | Vmax (purified protein [2])
B1 | 24.87 ± 2.785 mM | 0.0114 µmol/min/mg | 0.099 ± 0.020 mM | 0.0436 µmol/min/mg
B2 | 21.06 ± 1.883 mM | 0.0124 µmol/min/mg | 0.103 ± 0.009 mM | 0.0434 µmol/min/mg
B3 | 30.16 ± 2.942 mM | 0.0114 µmol/min/mg | 0.141 ± 0.009 mM | 0.046 µmol/min/mg
